# Source: US20110263454A1, “Methods of Identifying Functional Characteristics of Promoters, Transcription Modifying Proteins and Transcription Modulating Agents” (Salk Institute for Biological Studies, priority 2008, published 2011)
# How the values were obtained:
# [1] = test system: mDio2 promoter; assay: NHR-promoter luciferase screen, mDio2 promoter; assay type: cell-based, mouse; conditions: for Luc. act., normalized to lacZ / Normalized Luc. act., normalized to control: Dio2, HR component without or with its ligand; for mDio2 promoter reporter activity: transcription factor +/- ligand, control = 1.00
# Procedure: (§1) The use, feasibility, and reproducibility of the functional NHR-promoter screen in a 48-well format have been tested validated. Briefly, there were co-expressed 50 ng of each NHR/NHR homodimer or NHR/RXR heterodimer with 100 ng promoter/luciferase construct and 50 ng of LacZ (as a control for transfection efficiency) in CV-1 cells using Fugene HD (Roche) as a transfection reagent (alternatively or additionally, a CMV-YFP construct can be used as a transfection control). Each of the nuclear hormone receptors that were used in these experiments was cloned into a pcDNA3.1 vector and comprised a C-terminally linked V5H6 tag. Twenty-four hours after transfection, appropriate ligands were added, where applicable, (see Table 5 for various ligands and concentrations and after 48 hrs, samples were assayed for luciferase and LacZ activity. To measure for luciferase activity 15 ul of sample was added to 30 ul of luciferase buffer (20 mM tricine, 1.07 mM MgCarbonate, 2.67 mM MgSulfate, 0.1 mM Naz-EDTA, 5 mM DTT, 5 mM ATP, 0.15 mg/ml CoA, 0.5 mM Luciferin), mixed briefly, and run in a Perkin Elmer Victor 5 luminometer. Thus, the functional NHR-promoter screen was used to observe the transcriptional activity of 29 promoters from various physiological pathways including inflammation, lipid and sugar metabolism, cholesterol transport, xenobiotic metabolism, and circadian rhythm.
# (§2) The promoters that facilitate transcription of the indicated gene products that were tested using the protocols described herein are listed in the first row of the table. The nuclear hormone receptors and, where applicable, ligands that were assayed for their transcriptional effects on the promoters are listed in the first column of the table. The data represent the luciferase activity of each sample normalized to both the lacZ activity of that sample and to a control, e.g., no NHR or ligand, as customary in the art. As described previously, these normalizations allow the transcriptional activity of each reporter cell to be compared to other samples.
# (§3) Tables 7-40 show the transcriptional effects of the hormone receptors, and, where applicable, ligands (orphan receptors are screened without ligand), on each individual promoter. […] The control data of each table are shown in their last rows.
# [2] = test system: RevErba promoter; assay: NHR-promoter luciferase screen, RevErba (RVRa) promoter; assay type: cell-based; parameters: key to mRevErba promoter reporter activity / Normalized Luc. act., normalized to control: luciferase activity normalized to lacZ and to control (no NHR/ligand); conditions: for Luc. act., normalized to lacZ / Normalized Luc. act., normalized to control / negative reciprocal of normalized Luc. act. (fold repression; Table 33) / normalized Luc. act. on a logarithmic scale (column without head, Table 33): RVRa promoter; for Luc. act., normalized to lacZ / Normalized Luc. act., normalized to control: HR component without or with ligand; for negative reciprocal of normalized Luc. act. (fold repression; Table 33): given only where activity is below control; for normalized Luc. act. on a logarithmic scale (column without head, Table 33): log10 of activity normalized to control; for mRevErba promoter reporter activity: transcription factor +/- ligand, control = 1.00
# Procedure: Briefly, there were co-expressed 50 ng of each NHR/NHR homodimer or NHR/RXR heterodimer with 100 ng promoter/luciferase construct and 50 ng of LacZ (as a control for transfection efficiency) in CV-1 cells using Fugene HD (Roche) as a transfection reagent (alternatively or additionally, a CMV-YFP construct can be used as a transfection control). Each of the nuclear hormone receptors that were used in these experiments was cloned into a pcDNA3.1 vector and comprised a C-terminally linked V5H6 tag.
# as §2
# The control data of each table are shown in their last rows.
# [3] = test system: mCAR promoter; assay: NHR-promoter luciferase screen, mCAR promoter; assay type: cell-based, mouse; conditions: for luciferase activity normalized to lacZ activity and to a control, mCAR: mCAR promoter-luciferase, CV-1 cells, NHR +/- ligand, control = 1.00; for Luc. act., normalized to lacZ / Normalized Luc. act., normalized to control: mCAR promoter, HR/ligand component
# Procedure: as §1, §2, §3
# [4] = test system: mDio1 promoter; assay: NHR-promoter luciferase screen, mDio1 promoter; assay type: cell-based, mouse; conditions: for Luc. act., normalized to lacZ / Normalized Luc. act., normalized to control: Dio1, HR component without or with its ligand; for mDio1 promoter reporter activity: transcription factor +/- ligand, control = 1.00
# Procedure: as §1, §2, §3
# [5] = test system: mPOMC promoter; assay: NHR-promoter luciferase screen, mPOMC promoter; assay type: cell-based, mouse; conditions: for Results of assays of transcription factor (+/- ligand) with mPOMC: Table 6d, luciferase activity relative to control (control = 1.00); for Luc. act., normalized to lacZ / Normalized Luc. act., normalized to control: mPOMC promoter, HR component with or without ligand; for Normalized Luc. act., normalized to control: relative to control
# Procedure: as §1, §2, §3
Molecule,"Luc. act., normalized to lacZ [1]","Normalized Luc. act., normalized to control [1]",mDio2 promoter reporter activity [1],"Luc. act., normalized to lacZ [2]","Normalized Luc. act., normalized to control [2]",negative reciprocal of normalized Luc. act. (fold repression; Table 33) [2],"normalized Luc. act. on a logarithmic scale (column without head, Table 33) [2]",mRevErba promoter reporter activity [2],"luciferase activity normalized to lacZ activity and to a control, mCAR [3]","Luc. act., normalized to lacZ [3]","Normalized Luc. act., normalized to control [3]","Luc. act., normalized to lacZ [4]","Normalized Luc. act., normalized to control [4]",mDio1 promoter reporter activity [4],Results of assays of transcription factor (+/- ligand) with mPOMC [5],"Luc. act., normalized to lacZ [5]","Normalized Luc. act., normalized to control [5]"
"RVRa: Rev-Erb α (NR1D1), cDNA driver (protein, UniProt P20393 1-614, looked up) Nuclear receptor subfamily 1 …: MTTLDSNNNTGGVITYIGSSGSSPSRTSPESLYSDNSNGSFQSLTQGCPTYFPPSPTGSLTQDPARSFGSIPPSLSDDGSPSSSSSSSSSSSSFYNGSPPGSLQVAMEDSSRVSPSKSTSNITKLNGMVLLCKVCGDVASGFHYGVHACEGCKGFFRRSIQQNIQYKRCLKNENCSIVRINRNRCQQCRFKKCLSVGMSRDAVRFGRIPKREKQRMLAEMQSAMNLANNQLSSQCPLETSPTQHPTPGPMGPSPPPAPVPSPLVGFSQFPQQLTPPRSPSPEPTVEDVISQVARAHREIFTYAHDKLGSSPGNFNANHASGSPPATTPHRWENQGCPPAPNDNNTLAAQRHNEALNGLRQAPSSYPPTWPPGPAHHSCHQSNSNGHRLCPTHVYAAPEGKAPANSPRQGNSKNVLLACPMNMYPHGRSGRTVQEIWEDFSMSFTPAVREVVEFAKHIPGFRDLSQHDQVTLLKAGTFEVLMVRFASLFNVKDQTVMFLSRTTYSLQELGAMGMGDLLSAMFDFSEKLNSLALTEEELGLFTAVVLVSADRSGMENSASVEQLQETLLRALRALVLKNRPLETSRFTKLLLKLPDLRTLNNMHSEKLLSFRVDAQ",21.5,1.4,1.37,9.76,0.3,−2.865,−0.46,0.35,0.89,34.0,0.9,5.7,1.3,1.27,1.13,77.9,1.1
"RVRb: Rev-Erb β (NR1D2, alternative name RVR), cDNA driver (protein, UniProt Q14995 1-579, looked up) Nuclear receptor subfamily 1 …: MEVNAGGVIAYISSSSSASSPASCHSEGSENSFQSSSSSVPSSPNSSNSDTNGNPKNGDLANIEGILKNDRIDCSMKTSKSSAPGMTKSHSGVTKFSGMVLLCKVCGDVASGFHYGVHACEGCKGFFRRSIQQNIQYKKCLKNENCSIMRMNRNRCQQCRFKKCLSVGMSRDAVRFGRIPKREKQRMLIEMQSAMKTMMNSQFSGHLQNDTLVEHHEQTALPAQEQLRPKPQLEQENIKSSSPPSSDFAKEEVIGMVTRAHKDTFMYNQEQQENSAESMQPQRGERIPKNMEQYNLNHDHCGNGLSSHFPCSESQQHLNGQFKGRNIMHYPNGHAICIANGHCMNFSNAYTQRVCDRVPIDGFSQNENKNSYLCNTGGRMHLVCPMSKSPYVDPHKSGHEIWEEFSMSFTPAVKEVVEFAKRIPGFRDLSQHDQVNLLKAGTFEVLMVRFASLFDAKERTVTFLSGKKYSVDDLHSMGAGDLLNSMFEFSEKLNALQLSDEEMSLFTAVVLVSADRSGIENVNSVEALQETLIRALRTLIMKNHPNEASIFTKLLLKLPDLRSLNNMHSEELLAFKVHP",19.7,1.3,1.26,2.06,0.1,−13.5606,−1.13,0.07,0.91,34.5,0.9,8.8,2.0,1.97,0.85,58.4,0.8
"RARa: Retinoic acid receptor α (NR1B1), nuclear hormone receptor cDNA driver (protein, UniProt P10276 1-462, looked up) Retinoic acid receptor alpha: MASNSSSCPTPGGGHLNGYPVPPYAFFFPPMLGGLSPPGALTTLQHQLPVSGYSTPSPATIETQSSSSEEIVPSPPSPPPLPRIYKPCFVCQDKSSGYHYGVSACEGCKGFFRRSIQKNMVYTCHRDKNCIINKVTRNRCQYCRLQKCFEVGMSKESVRNDRNKKKKEVPKPECSESYTLTPEVGELIEKVRKAHQETFPALCQLGKYTTNNSSEQRVSLDIDLWDKFSELSTKCIIKTVEFAKQLPGFTTLTIADQITLLKAACLDILILRICTRYTPEQDTMTFSDGLTLNRTQMHNAGFGPLTDLVFAFANQLLPLEMDDAETGLLSAICLICGDRQDLEQPDRVDMLQEPLLEALKVYVRKRRPSRPHMFPKMLMKITDLRSISAKGAERVITLKMEIPGSMPPLIQEMLENSEGLDTLSGQPGGGGRDGGGLAPPPGSCSPSLSPSSNRSSPATHSP",40.3,2.6,2.56,34.6,1.2,–,0.09,1.24,1.22,46.3,1.2,7.4,1.7,1.66,1.43,98.5,1.4
"RARb: Retinoic acid receptor β (NR1B2), nuclear hormone receptor cDNA driver (protein, UniProt P10826 1-455, looked up) Retinoic acid receptor beta: MTTSGHACPVPAVNGHMTHYPATPYPLLFPPVIGGLSLPPLHGLHGHPPPSGCSTPSPATIETQSTSSEELVPSPPSPLPPPRVYKPCFVCQDKSSGYHYGVSACEGCKGFFRRSIQKNMIYTCHRDKNCVINKVTRNRCQYCRLQKCFEVGMSKESVRNDRNKKKKETSKQECTESYEMTAELDDLTEKIRKAHQETFPSLCQLGKYTTNSSADHRVRLDLGLWDKFSELATKCIIKIVEFAKRLPGFTGLTIADQITLLKAACLDILILRICTRYTPEQDTMTFSDGLTLNRTQMHNAGFGPLTDLVFTFANQLLPLEMDDTETGLLSAICLICGDRQDLEEPTKVDKLQEPLLEALKIYIRKRRPSKPHMFPKILMKITDLRSISAKGAERVITLKMEIPGSMPPLIQEMLENSEGHEPLTPSSSGNTAEHSPSISPSSVENSGVSQSPLVQ",32.7,2.1,2.08,45.6,1.6,–,0.21,1.63,1.30,49.6,1.3,6.8,1.5,1.54,1.85,127.4,1.8
"RARg: Retinoic acid receptor γ (NR1B3), nuclear hormone receptor cDNA driver (protein, UniProt P13631 1-454, looked up) Retinoic acid receptor gamma: MATNKERLFAAGALGPGSGYPGAGFPFAFPGALRGSPPFEMLSPSFRGLGQPDLPKEMASLSVETQSTSSEEMVPSSPSPPPPPRVYKPCFVCNDKSSGYHYGVSSCEGCKGFFRRSIQKNMVYTCHRDKNCIINKVTRNRCQYCRLQKCFEVGMSKEAVRNDRNKKKKEVKEEGSPDSYELSPQLEELITKVSKAHQETFPSLCQLGKYTTNSSADHRVQLDLGLWDKFSELATKCIIKIVEFAKRLPGFTGLSIADQITLLKAACLDILMLRICTRYTPEQDTMTFSDGLTLNRTQMHNAGFGPLTDLVFAFAGQLLPLEMDDTETGLLSAICLICGDRMDLEEPEKVDKLQEPLLEALRLYARRRRPSQPYMFPRMLMKITDLRGISTKGAERAITLKMEIPGPMPPLIREMLENPEMFEDDSSQPGPHPNASSEDEVPGGQGKGGLKSPA",35.2,2.2,2.24,39.6,1.4,–,0.15,1.42,1.24,47.1,1.2,7.2,1.6,1.61,1.53,105.9,1.5
